Tests used:
Type in all cases: biochemical, Synechocystis sp. PCC 6803
[1] = substrate: Nc1ncnc2c1ncn2[C@@H]1O[C@H](COP(=O)(O)OP(=O)(O)OP(=O)(O)O)[C@@H](O)[C@H]1O; assay: continuous fluorometric MgDIX formation assay, Hill fit; conditions: 10 mM free Mg2+, 8 μM DIX, pH 7.7, 34 °C
[2] = substrate: Nc1ncnc2c1ncn2[C@@H]1O[C@H](COP(=O)(O)OP(=O)(O)OP(=O)(O)O)[C@@H](O)[C@H]1O; assay: continuous fluorometric MgDIX formation assay, Michaelis-Menten fit; conditions: 10 mM free Mg2+, 8 μM DIX, pH 7.7, 34 °C, I 0.1, non-cooperative
[3] = substrate: CC1=C(CCC(=O)O)c2cc3nc(cc4[nH]c(cc4C)cc4[nH]c(cc1n2)cc4C)C(C)=C3CCC(=O)O; assay: as above; conditions: 5 mM ATP, Mg2+, pH 7.7, 34 °C, I 0.1

B1: magnesium chelatase (ChlI, His6-ChlD, His6-ChlH); nucleotide sites (Synechocystis sp. PCC 6803 substr. Kazusa) (protein)
chain 1: MTATLAAPSKTRRVVFPFTAIVGQDEMKLALLLNVIDPKIGGVMIMGDRGTGKSTTIRALADLLPEIEVVANDPFNSSPSDPEMMSEEVRIRVDSQEPLSIVKKKVTMVDLPLGATEDRVCGTIDIEKALSEGVKAFEPGLLAKANRGILYVDEVNLLDDHLVDVLLDSAAGGWNTVEREGISIRHPARFVLVGSGNPEEGELRPQLLDRFGMHAEIRTVREPELRVKIVEQRTEFDQNPHPFCDQYQTEQEALQAKIVNAQNLLPQVTIDYDYRVKVSEVCAELDVDGLRGDIVTNRAAKALAAFEGRTEVTVDDISRVIVLCLRHRLRKDPLESIDSGSKVEKVFKRVFGVVDEA
chain 2: not shown
notes: recombinant from E. coli; His6 tags on ChlD and ChlH, ChlI untagged; ATPase sites in ChlI, allosteric nucleotide site proposed in ChlD; with Magnesium-chelatase subunit ChlH
B1 was tested, and the K0.5 ([1]; I 0.1, Hill n 2.0 ± 0.2) was 0.43 ± 0.02 mM and the kcat ([1]; I 0.1, Hill n 2.0 ± 0.2) was 0.00675 ± 0.000233 s⁻¹.

B2: magnesium chelatase (ChlI, His6-ChlD, His6-ChlH); nucleotide sites (Synechocystis sp. PCC 6803 substr. Kazusa; P72772:E152Q) (protein)
chain 1: B1 chain 1
chain 2: not shown
notes: as for B1
B2 showed a K0.5 ([1]; I 0.1, Hill n 1.8 ± 0.17) of 0.72 ± 0.04 mM and a kcat ([1]; I 0.1, Hill n 1.8 ± 0.17) of 0.0018 ± 6.7e-05 s⁻¹.

B3: magnesium chelatase (ChlI, His6-ChlD, His6-ChlH); nucleotide sites (Synechocystis sp. PCC 6803 substr. Kazusa; P72772:R208A) (protein)
chain 1: B1 chain 1
chain 2: not shown
notes: as for B1
B3 showed a K0.5 ([1]; I 0.1, Hill n 2.0 ± 0.10) of 0.78 ± 0.02 mM and a kcat ([1]; I 0.1, Hill n 2.0 ± 0.10) of 0.00438 ± 8.3e-05 s⁻¹.

B4: magnesium chelatase (ChlI, His6-ChlD, His6-ChlH); nucleotide sites (Synechocystis sp. PCC 6803 substr. Kazusa; P72772:R289A) (protein)
chain 1: B1 chain 1
chain 2: not shown
notes: as for B1
For B4, the Km [2] was 1790 ± 320 µM and the kcat [2] was 0.0009 ± 8.3e-05 s⁻¹.

B5: magnesium chelatase (ChlI, His6-ChlD, His6-ChlH); porphyrin site (Synechocystis sp. PCC 6803 substr. Kazusa) (protein)
chain: MFTNVKSTIRRVDPEALNGRQLLKVVYVVLESQYQSALSAAVRNINRTNSSLAIQLTGYLIEELRDPENYANFKHDVSEANLFIASLIFIEDLADKVVEAVTPYRDNLDAAIVFPSMPQVMRLNKMGSFSMAQLGQSKSAIAQFMKKRKENSSGAGFQDAMLKLLRTLPTVLKYLPVEKAQDARNFMLSFQYWLGGSQENLENFLLMLTDKYVYPDLGLDKLVNYQEPVVYPDMGIWHPLSMQMFENVKDYLEWYNQRPDISEDLKDPLAPCIGLIMQRTHLVTGDDAHYVGMVQELEAMGARVICVFSGGLDFSKPVNEYFWDKSVNGVEPLPIVDAVVSLTGFALVGGPARQDHPRAIESLKKLNRPYMCALPLVFQTTEEWEASDLGLHPIQVALQIAIPELDGAIEPIILSGRDGSTGRAIALQDRLEAIAQRAMKWANLRKKPKLDKKVAITVFSFPPDKGNVGTAAYLDVFGSIYEVMKGLQGNGYDVQDLPGSAKELMEAVIHDAQAQYNSPELNIAHRMSVEQYERLTPYSVRLEENWGKPPGHLNSDGQNLLIYGKEFGNVFIGVQPTFGYEGDPMRLLFSRSASPHHGFAAYYTYLNHIWKADAVLHFGTHGSLEFMPGKQMGMSGECYPDNLIGTIPNLYYYAANNPSEATIAKRRGYASTISYLTPPAENAGLYKGLQELNELIGSYQTLKDSGRGIQIVNTIMDQARICNLDQDVNLPDINAEEMDQGQRDTIVGSVYRKLMEIESRLLPCGLHVIGQPPSAEEAIATLVNIASLDREDEGIWALPTLIAESIGRNMEEIYRNSDKGILADVELLQDITLATRAAVAALVQEQINADGRVSFVSKLNFFKIGKKAPWVKSLCDSGYPNVNEEKLKPLFEYLEFCLEQVCADNEFGGLLQALEGEYVLPGPGGDPIRNPNVLPTGKNIHALDPQSIPTLAAVQSAKVVVDRLLERQRAENGGNYPETIASVLWGTDNIKTYGESLAQIMWMVGAKPVPDALGRVNKIELVPLEELGRPRIDVVVNCSGVFRDLFINQMNLLDQAVKLAAEADEPLEMNFVRKHALEQAEEMGIGVREAATRIFSNASGSYSSNVNLAVENSSWEDESELQEMYLKRKSFAFNSDNPGMMDQNRDMFERALKTADATFQNLDSSEISLTDVSHYFDSDPTKLISTLRDDGKAPAAYIADTTTANAQVRTLSETVRLDARTKLLNPKWYEGMLSHGYEGVRELSKRLVNTMGWSATAGAVDNWVYEDANSTFIKDEEMCKRLMDLNPNSFRRMVSTLLEVNGRGYWETSDENLERLQELYQEVEDRIEGVE
notes: recombinant from E. coli; His6 tags on ChlD and ChlH; copies are assay ratio; with Magnesium-chelatase subunit ChlI; Magnesium-chelatase subunit ChlD
Work on B5 yielded a Km [3] of 5.74 ± 0.77 µM and a kcat [3] of 0.0188 ± 0.001 s⁻¹.

Source: article PMC3789969, “The Allosteric Role of the AAA^+ Domain of ChlD Protein from the Magnesium Chelatase of Synechocystis Species PCC 6803” (The Journal of Biological Chemistry, 2013)
